In the DeepSol protein solubility set:

Assay: soluble on expression in E. coli; label from the status in PepcDB or PDB records

Sequence	soluble on expression in E. coli
MAHHHHHHMASVGRFVQTADPAVTALESPPLPTETRLWRQSPDCQSESDSNRVSGSVLDSVKSNGGPKHASTARLHASQDLPTSVTRFLCLSSSSNSAAAKDLRRQLLVVRDCCVALGNKVKGSELLLLGGSQLSRKVEAMADFNSCLGVIFAASLTFTGETEGVAKDTLCSVVEMLKSAQESGDEKVFRAAVVKIVNRILLCTPLRPPARNAAKETARKSAGKQEQHAEQEPKLEDECLDFLTVEDGVPVLLECVWKRWLRYFEDGYVRYVKKLMAEERQALEAAAAAAAADDYNGEEAQYVDGVSATTTQTISTVPLFTTCQDYWKSPASAYAQFCYILLAIFFVRTKDFSLNYLARVTKLVQYFTYQLEFEDGEPIAVRTDTDAEEDSAQSEDEDDDRTPPQQEGPRKEKQVHSLPMPEYDKAVTQRRFRMSRRSSSQGLVPTVVSFKKAEKPRRHCHKCFFTDALPGDLRPSVEAVRQEEAEAAARDSEEHSHLPVVRRSANLDLSEHSISPQREREQLDACDASMESVQGV	not soluble
MAHHHHHHMAVGKNKRTSKGKKGGKKKVTDVFTKKEWYDLKAPKMFLVRNFGKTLVTKTIGKKLATDSLKGRIYEVNLADLNNDEDQAHKKIKLSCDHIINRDCYTDFCGLSITRDKLCSLIRKGYTLIEGHTDVKTLDNYHLRMFCIAFTKKRQNQTKSTCYAQTSQIKKIRKKMVDIMTAEASKVLLKDLVKKFIPESIGKEIEKQCKKIYPLQNVLIRKVKILKRPKLDISKLMELHTDPKEESGKNVNALPESKEATNILTAELKH	not soluble
MAHHHHHHMAVSQLLEMKLITRPRANLTQENVNAMVEFDYELAKKAQIAVDNNLPVNFFDLEYIDKPEYLAQLLEEKNILEKTREEVLKREKGNYKTPEILKNYKRVEVPREWRQELEIDEKILKAQPGLKENIELQKIMHNYVQSKFKSKVPGQPQKKHVKG	soluble
MAHHHHHHMCAALSPAHFQLRVKILSEAAKHVPETGFTNAALAASLKSIGVEDITDRTLSQIFNRGFPIALVEHIVKSTNLHVQRELESVFSKDAIIKSIDSNVDAFVQNRLLLPTEKNVVEKAILSKLELLIPLAEHWPSAVALEYLPANLPYTVMNLAEFVDTTVYYMERATTLGELLDPARRILRSKAMASRIRSGEVDSNGASPTSEFLKSFLKGISLSSGPYAGPSALNLGWYCKRAQVAIVYGAVTTSLLGDVSQNAADTRSLTKAAVETVF	not soluble
MAHHHHHHMCSDVKFSERLTTSPAVVTGFLSPTLRKVMKATMKNSDFNDNTNNSNNMNMFQNLPATLELNPSHTIVTSIYHLKNTNQEVAKLLVQQLYDNACIAAGILEDPRSLLSKLNELLLLTARYAYHYEKKDIQENTKDQPIDVKDNTMAIDNIVNTKENNTNDDSVMKEAQSSNL	soluble
MAHHHHHHMCSVLILASTCRRRFSNVHLTPAGTVLNSNSALISRRINRRKMKNCNNNDLLKVLKMETTYNELPAHNLLMSSKNDINKLFDYINKNEELSKLMNSCGTYVYLKYLGVVIFSIKENVQISHLSEFIQYLLNKNVFGSSTFTKIRKSKDSDTYNAPFIICLVLIVRVCLSPFLNNILYCHMQNEIITFIIFKPTKKSVHCFFSFFTILL	soluble
MAHHHHHHMCVRTWQKCPGLVSVKHRCIGGTLTNDGLRTEQYSHAPGPVRYFFLCLYDALLAHQQRLDQYWLNPLYQLNVHSFPFVYLYIVHFNTKIIFSFSFKANKNFFPLRLTTGKNCRKTKSTCRQPPTPNIDDRSSL	not soluble
MAHHHHHHMDAKQRESIEELKEQLRGLEEALLIQEKVMQQRNQVILSLSSSIADAENSIGESKEGLKKAEESLEEAIRSNTIAHTERLVLQEEATKYSERDEYLNELSEADAGLNAAEAQVKDLVIQINDLSREPQNKNALQRVTLVRLISMLNDLHASLKHSVQCVPHEEDNRAREVLKAIRELSRERERTFGHCLRKKREIMGVMELKKQRTDEILLESKKNVALLRDIHEKTTLDAVEKIQKERNLLQEELENIKRANQLLQDTLGSTECLCDTKGSDSASTPASISMNVASCQSTDVQKEREHLREYLRHLEEKVTQLRSTTDELRESVGSQMEKNTLKLKDLRHQVRSKQNETHRLENENRKLKSLCDSLASTLGPK	not soluble
MAHHHHHHMDAPEWTKDAQSIQGAKDYVRQASIVDFYEMICRNIFTHHPANLTEFCLRIVKDIMNGTEITSAADFQPKRIDDNKYMRDMAMCSFLDGWILELLRERPGTHLERMEFHKRYLEGLQSESDTGK	soluble
MAHHHHHHMDEKPRLIEHTSACRGTADVLILSGFPWYVTEGQVRKYLTEIHPSNIAPLTVRLYTNPANGSSRGICFVEYCPKQSNTGGASQGIKNEFPERKQKGEAEDIAALMKLRIEATAYERHYIRVLLYRLTNRNWDRGGRLPDLPTDPPPLATSRGGVLEGYGDEGFTVRCSALLGLANTVTPNGIASMQTLRKRFREEAAKAAMPNKSDEGYPGSSAARQ	not soluble
MAHHHHHHMDGEAAAPTGGAGPKYIVEHLDELEEWSILEYIHICETVKDQNVIFTKFDRPFGEVSEEHNPTCYKQPISELKDKFEWKKICLLDMKATSTLTCSDREHLDYLLFGGILGNVPSDDRTSILRKCQFVISRNLGDMQMTTNTAVLVCHIILDKHVEFKDIPFVDSPEIPLRNEKETMVLPFRFVSKSFFTGMEGDRNVPVLPRNFTEYLIGLGDQRVGDLDEFLSGVVV	soluble
MAHHHHHHMDGGVVKTILRKGEGGEENAPKKGNEVTVHYVGKLESSGKVFDSSRERNVPFKFHLGQGEVIKGWDICVASMTKNEKCSVRLDSKYGYGEEGCGESIPGNSVLIFEIELISFREAKKSIYDYTNEEKIQAAFDLKEEGNDFFKKNEIDEAISKYKEALDLFIHAEDWDGDLAEKKKNIEIICNLNLSTCYNKSKDFPNAIAHASKVLKIEKNNVKALYKLGVANMHFGFLEVAKENLYKAASLSPNNVEIRNSYDACLSKLKEARKRDKLTFGGMFDKGI	not soluble
MAHHHHHHMDMNFGFCNDAFFEQGNRSTDKEDIEELKKGESNEITKKGNNELGEEKELPKELCVPVTIKLLLSKMMSHEEFKIHDFQISGIIVFGKVCRIKELASAIIFEICDYTGNIEAKYNKDAKNEKVKDHIEGIKVNDHIKVVGVVYSPESKTEQIQISISYINKVEDWVSYFSYFTSDVIYCYLKLLKLKNIYTPNGVNNEDKPWSHVTLDTYYNQLDDIDTDIIKYLHTTSEKYANQQDIFEHLKKYHSEMNIKKSLTKLIEQYDLAQYEDIISIP	not soluble
MAHHHHHHMDNSHFSKMLKECKIIGKSFTSTDADLLFSKVKAKEARKISFTEFKEKAIPEIAAKMKKTPADIEAMIANAAPKSSGTKADTVRFHDDKSTYTGAAKQGGPTNVDRNAGSLAGVVDRRQETINNRGFTA	soluble
MAHHHHHHMDSGTKREFGRNVTNVDDFKGAKLTPSKIHHQKFEGSDKRHGVRLADEGKWCIHKRSRVEPVAAGPSRERSVEETKSTTTCCSLPLPSQETNLCSIRGDSNTCSSDDSSIERYFDESCEAIEAPTAPAPRPPSPTWNNALRTVSGTAAAVLQDLKNAASLQTDQSSSSEVLPSPPVIPLIL	not soluble
MAHHHHHHMEGFPLGLAVIIDPPREKESGAMVEAHAARDNGSAAGSLSNGETNTADTGGDAYSGHSINNREQVPIALHNVCPTRFLWSRYEENGGMLLHMPRSKVCREHRKGLCRFGNECSFLHVCRQMPIGSGDEELLSHSRTPLRHSTVQGSMQDFSHPPSFATASGSLCHHAHSQSYSQANLQHFQGSTVMSQNGSYMDGSLGNSQTGSRPHLSRAPTASESYGGHQPLLRPLGGVQNSHSSVAARGSFSHNPYAEASSFQS	not soluble
MAHHHHHHMEHQYFFIEATWLEAAAAGICSRNGIILKDAIAKAEKGIPVQIKNDSAPTMRSLIQTTHASLEQACERYLHQNARNLRLTRASKPTPAVEALNEAERASCRELVVRIAITGALTQYQRCTRKCILQDSSSLSPSLSHPAVSASKTVQGNGVTDKQLERSFQTTLLKGLLYAFESFQECHSMNRDHYPPRVDSNTPGTVGWDTLVLLYLVHRIPQVARHASGSAIDDCIGQVIRTWRKLLVALQSVDAQEAPEHSRRRGALSLVNGLLIILFQRYNTHQCAVLLGAVEHAETVAESSKEPARSILHPSRHMVSEVVTYHYYQGRMRLYERKLDEAHRILRIAYTLLPPAGFGNEPQRLNKERVRFFLSVAGVANGRRIPDEILRADEDLLPRLFGSLTAAIERGDPVCFSAALDSHASTFHRRGVYLILQQAKILCYLMVVARVHAAMAALSDVDNSRITIPTLLAAYTYITSEKPQSGKSSAESKKRSRDDEAVSPVSEARMAESVMDEDRMALWIAKLIARGYVRGYYSHEHKTLVLSKKVPFPLLQEEV	not soluble
MAHHHHHHMERMSLAVVRQLDADHERGGIWYLSGHRDHVLSIAASSHGVFATCDAKGLGLLWKHDTSHSNSDPSHVSRISSEGPAIVAACFPSSTRLCTAQGNGRVGVWDIEASTEVQSLSRLPSRGKSVNWPVINALSAWESDLVAYGGDDGYLVLSSLAVRNPVVSVNLRVPITSVAAAATSLLVGDVLGNIRCFDTRTFKSLYCFQGHRGVVTSVSVKEDASLAVSYGMDDSLALWNALPFSLTTEDRLIHRGEFHQGDTKTLLRCDWATSGAALVPVSDGRVVYLSAPTLDGIRTILPGRHRREPAQCAAFIGDGYAVSSAETEVILQRI	not soluble
MAHHHHHHMERRSEWVASLRSTLPQFSKRSAAPLERGNAAAILGPAPRRTLDKALSSHNTTSSLLLPSEWCEQATQRLITTLHGIVPPLQVQQTDYFLCSLIHPSYVQASTMRCESEALRRRVQQELRRTVCMPLELTMTGSKSLRLLRELTHYVEQGAAAAATSARARATLPAAPVAGRSEARDPSYGPSSWSSYPLDASWPELHSADSTAFVQAFQRAGLDSLVLYDKSFFAASSTLTDNISGAGSAEVSLAAFTALCGSIELVSGWCSLLQFVDRVASEQRGLERNTDGHE	not soluble
MAHHHHHHMESAIGLSVPLYQPHAPAPGAVIDPDMVEDHVSFLRTVRAFHDYKRQALAAREMRCTNFRKLQDQHRHLLCIDLDKILEKYLECIKVNSAFFDAICEASEELFDSYWPEGTTVFMKEVPPPTPLDMNKVFSTLRQFVRDWSAEGVAERDCVYKPILDTLDRCFPNRSERENVRVLIPGAGLCRLSVELALHGFFAQANEFSYHMLIAGHYIQNHVFESCQHKIYPYSDSTCNLVNRADQFAEVQIPDLCASEAIDALRDKGLSFGQLSMVAGDFTEVYAKPHQHKTWSVVATCFFIDTAHNIIEYLVIIYNLLVPGGYWVNVGPLLYHFADSADDMSIELSLGEVLTVAQRIGFVLNGPPSFIDTTYTNNQRSMKQLVYRCAFFVLQRPLADRQTEQMDRNVEAKVT	not soluble
MAHHHHHHMETENVPLENEENQNENYEQEENTLAQEAEIVLITTSLGGIKSSFFSSLRAHQLLNCKKYIYFSIDANRDTSSAKNLKDIELFNKWKKGMILLSNENGIVLPQILIDGVPLGNDVTLQNLEDEGILDYIIARLKCPNCLIDKSNIEERCPGCKKYYVTLITDDLIQNDSVIRILQGEPYKEPENE	soluble
MAHHHHHHMEWVELHDVDPETMSLELPPDMLFGPLEFPKQMRFLLAALRADNELADGYLARVIIDRMDLSLDPPILSEGDFLAAGGKELLDFSVEDFTGTKSRAQRKHIFFQPDQFLQFINIIAAYPTLTEYFVNEKDGVELVFQAYRHSKNPYACVMAMRSLTLFSFTQAVDGTVERRILQSNGVKTIVDAYKQSTGDPTETRFPTLLLSSIMRHYPKEGGKEFIDADGVEAVVNNLNIARYKGIPQHIRVLHDAQRLPKQSIGKKSVDARLEEADFLGVAMGLLDTFPEFYEATGDLLKLLTRVVPAHADPLELLEYRAMPILSKYYVRWREDQSFQTDGTRTLVAKLFELMLNDKTCQRCYDPSVASYELLECLRTAKLAVKDEQEKRVMRFPDPQRQPASAAA	soluble
